From patent publication US20070207967A1 (CTT CANCER TARGETING TECHNOLOGIES, published 2007)
Ends that are not written are not given here.

B4: pro-MMP-9 (purified human pro-matrix metalloproteinase-9) (enzyme, UniProt P14780 20-707, looked up)
chain: APRQRQSTLVLFPGDLRTNLTDRQLAEEYLYRYGYTRVAEMRGESKSLGPALLLLQKQLSLPETGELDSATLKAMRTPRCGVPDLGRFQTFEGDLKWHHHNITYWIQNYSEDLPRAVIDDAFARAFALWSAVTPLTFTRVYSRDADIVIQFGVAEHGDGYPFDGKDGLLAHAFPPGPGIQGDAHFDDDELWSLGKGVVVPTRFGNADGAACHFPFIFEGRSYSACTTDGRSDGLPWCSTTANYDTDDRFGFCPSERLYTQDGNADGKPCQFPFIFQGQSYSACTTDGRSDGYRWCATTANYDRDKLFGFCPTRADSTVMGGNSAGELCVFPFTFLGKEYSTCTSEGRGDGRLWCATTSNFDSDKKWGFCPDQGYSLFLVAAHEFGHALGLDHSSVPEALMYPMYRFTEGPPLHKDDVNGIRHLYGPRPEPEPRPPTTTTPQPTAPPTVCPTGPPTVHPSERPTAGPTGPPSAGPTGPPTAGPSTATTVPLSPVDDACNVNIFDAIAEIGNQLYLFKDGKYWRFSEGRGSRPQGPFLIADKWPALPRKLDSVFEERLSKKLFFFSGRQVWVYTGASVLGPRRLDKLGLGADVAQVTGALRSGRGKMLLFSGRRLWRFDVKAQMVDPRSASEVDRMFPGVPLDTHDVFQYREKAYFCQDRFYWRVSSRSELNQVDQVGYVTYDILQCPED
notes: Purified proenzyme in plate assays; endogenous pro-MMP-9 of HT1080 and THP-1 cells in the co-immunoprecipitations
B5: MMP-9 collagen binding domain (CBD), amino acids Gly204-Gly373 (other, UniProt P14780 223-392, looked up)
chain: GNADGAACHFPFIFEGRSYSACTTDGRSDGLPWCSTTANYDTDDRFGFCPSERLYTQDGNADGKPCQFPFIFQGQSYSACTTDGRSDGYRWCATTANYDRDKLFGFCPTRADSTVMGGNSAGELCVFPFTFLGKEYSTCTSEGRGDGRLWCATTSNFDSDKKWGFCPDQG
modifications: biotinylated with sulfo-NHS-LC-biotin in some experiments
notes: range 223-392; Vector-derived residues (start Met from the NdeI site) not described further; also called recombinant CBD; biotinylated CBD

Experiments:
[1] = biological target: T1, pro-MMP-2 (UniProt P08253 30-660, limits assumed); assay: phage binding assay
T1 sequence (looked up): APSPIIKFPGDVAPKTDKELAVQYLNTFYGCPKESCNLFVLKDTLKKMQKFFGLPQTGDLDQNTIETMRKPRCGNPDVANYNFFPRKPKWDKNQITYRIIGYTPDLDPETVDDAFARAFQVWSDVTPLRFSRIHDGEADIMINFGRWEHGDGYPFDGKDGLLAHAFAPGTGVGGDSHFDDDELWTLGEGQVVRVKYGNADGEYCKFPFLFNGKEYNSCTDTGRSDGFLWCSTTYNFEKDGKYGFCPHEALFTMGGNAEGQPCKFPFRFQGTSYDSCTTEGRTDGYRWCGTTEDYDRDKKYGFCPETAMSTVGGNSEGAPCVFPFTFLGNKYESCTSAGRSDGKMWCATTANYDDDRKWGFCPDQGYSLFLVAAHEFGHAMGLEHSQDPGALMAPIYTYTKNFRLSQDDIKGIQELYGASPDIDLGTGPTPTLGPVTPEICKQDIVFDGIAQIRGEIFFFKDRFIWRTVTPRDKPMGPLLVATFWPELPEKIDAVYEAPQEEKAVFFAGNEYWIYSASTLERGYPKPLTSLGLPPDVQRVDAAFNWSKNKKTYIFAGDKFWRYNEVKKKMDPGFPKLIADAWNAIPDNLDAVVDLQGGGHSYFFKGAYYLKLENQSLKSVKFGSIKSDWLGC

[2] = biological target: pro-MMP-3 (UniProt P08254 18-477, limits assumed); assay: phage binding assay
Sequence of pro-MMP-3 (P08254 18-477 limits assumed): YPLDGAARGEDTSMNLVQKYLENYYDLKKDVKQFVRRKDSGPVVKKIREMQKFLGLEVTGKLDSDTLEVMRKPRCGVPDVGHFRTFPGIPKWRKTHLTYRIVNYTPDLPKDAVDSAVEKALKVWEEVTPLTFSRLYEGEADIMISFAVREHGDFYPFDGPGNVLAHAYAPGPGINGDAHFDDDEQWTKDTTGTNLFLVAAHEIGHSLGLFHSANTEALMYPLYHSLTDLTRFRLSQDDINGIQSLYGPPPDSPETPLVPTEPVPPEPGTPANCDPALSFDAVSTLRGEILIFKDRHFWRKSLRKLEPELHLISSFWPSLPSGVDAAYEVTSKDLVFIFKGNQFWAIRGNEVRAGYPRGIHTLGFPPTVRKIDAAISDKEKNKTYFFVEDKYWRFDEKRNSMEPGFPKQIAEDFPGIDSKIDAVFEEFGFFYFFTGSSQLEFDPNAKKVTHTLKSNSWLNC

[3] = biological target: B5; assay: phage binding assay
[4] = biological target: T2, pro-MMP-9-ΔHC (Ala1-Gly424), pro-MMP-9 lacking the hinge region and the C domain (UniProt P14780 20-444); assay: phage binding assay (not shown)
T2 construct: range 20-444

[5] = biological target: B4; assay: phage display selection; table of pro-MMP-9 binding peptide sequences, group I CBD-binding
[6] = biological target: B5; assay: pepspot membrane assay, chemiluminescence
[7] = biological target: B4; assay: phage display selection; table of pro-MMP-9 binding peptide sequences, group I CBD-binding; (6) is the number of isolated phage
[8] = biological target: platelet integrin αIIbβ3 (UniProt P08514 32-1039; P05106 27-788); assay: pro-MMP-9 on immobilized integrin, read out by biotinylated gelatin
Sequence of platelet integrin αIIbβ3 (P08514 32-1039, chain 1 of 2): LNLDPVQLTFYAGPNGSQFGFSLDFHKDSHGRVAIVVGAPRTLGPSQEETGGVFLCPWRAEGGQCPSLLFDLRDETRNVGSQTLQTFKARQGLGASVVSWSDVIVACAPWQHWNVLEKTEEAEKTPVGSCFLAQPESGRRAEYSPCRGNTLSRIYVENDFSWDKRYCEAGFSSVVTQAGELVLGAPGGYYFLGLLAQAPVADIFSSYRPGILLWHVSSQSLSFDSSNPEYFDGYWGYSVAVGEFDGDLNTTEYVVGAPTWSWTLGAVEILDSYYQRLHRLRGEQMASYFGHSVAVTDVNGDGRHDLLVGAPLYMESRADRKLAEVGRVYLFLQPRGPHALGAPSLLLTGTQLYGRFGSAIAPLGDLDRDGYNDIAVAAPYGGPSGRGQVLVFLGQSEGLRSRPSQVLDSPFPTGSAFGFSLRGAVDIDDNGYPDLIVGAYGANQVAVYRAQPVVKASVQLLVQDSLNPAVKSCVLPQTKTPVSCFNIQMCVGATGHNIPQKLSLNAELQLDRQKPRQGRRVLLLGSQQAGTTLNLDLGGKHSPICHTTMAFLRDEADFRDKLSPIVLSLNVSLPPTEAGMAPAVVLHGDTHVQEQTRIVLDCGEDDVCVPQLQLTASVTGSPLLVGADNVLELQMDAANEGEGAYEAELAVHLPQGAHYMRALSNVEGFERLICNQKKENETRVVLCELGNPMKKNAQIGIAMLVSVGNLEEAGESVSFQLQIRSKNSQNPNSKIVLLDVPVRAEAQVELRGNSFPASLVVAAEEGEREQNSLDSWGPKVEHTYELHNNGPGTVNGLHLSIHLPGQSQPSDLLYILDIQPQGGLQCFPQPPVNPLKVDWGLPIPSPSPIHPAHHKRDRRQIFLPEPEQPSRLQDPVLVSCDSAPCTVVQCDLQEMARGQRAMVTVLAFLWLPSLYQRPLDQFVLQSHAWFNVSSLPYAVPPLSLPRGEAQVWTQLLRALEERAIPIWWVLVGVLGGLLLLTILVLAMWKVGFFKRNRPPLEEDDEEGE
Sequence of platelet integrin αIIbβ3 (P05106 27-788, chain 2 of 2): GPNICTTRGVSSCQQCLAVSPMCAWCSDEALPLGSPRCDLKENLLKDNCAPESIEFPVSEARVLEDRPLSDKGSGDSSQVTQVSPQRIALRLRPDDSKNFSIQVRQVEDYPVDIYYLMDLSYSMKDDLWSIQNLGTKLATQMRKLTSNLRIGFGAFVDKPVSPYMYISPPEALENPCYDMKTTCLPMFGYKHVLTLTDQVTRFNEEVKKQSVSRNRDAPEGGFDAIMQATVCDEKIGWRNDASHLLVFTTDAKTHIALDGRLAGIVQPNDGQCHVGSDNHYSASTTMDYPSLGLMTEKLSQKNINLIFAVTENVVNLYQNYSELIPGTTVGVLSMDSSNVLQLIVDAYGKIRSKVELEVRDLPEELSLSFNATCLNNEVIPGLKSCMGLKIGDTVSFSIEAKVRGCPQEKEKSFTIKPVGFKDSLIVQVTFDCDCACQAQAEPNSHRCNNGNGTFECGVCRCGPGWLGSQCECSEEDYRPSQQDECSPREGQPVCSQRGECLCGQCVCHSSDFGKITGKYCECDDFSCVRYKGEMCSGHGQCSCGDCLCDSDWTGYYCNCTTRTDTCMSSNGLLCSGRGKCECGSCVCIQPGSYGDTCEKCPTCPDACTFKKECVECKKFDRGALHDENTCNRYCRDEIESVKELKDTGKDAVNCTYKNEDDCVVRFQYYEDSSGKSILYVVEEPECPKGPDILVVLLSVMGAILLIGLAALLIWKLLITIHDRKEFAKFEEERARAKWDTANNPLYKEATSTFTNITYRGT

[9] = biological target: T3, αVβ3 integrin of HT1080 cells (human, UniProt P06756 31-1048; P05106 27-788); assay: immunoprecipitation with anti-integrin antisera, western blot for MMP-9
T3 construct: whole, on cells
T3 sequence (P06756 31-1048, chain 1 of 2): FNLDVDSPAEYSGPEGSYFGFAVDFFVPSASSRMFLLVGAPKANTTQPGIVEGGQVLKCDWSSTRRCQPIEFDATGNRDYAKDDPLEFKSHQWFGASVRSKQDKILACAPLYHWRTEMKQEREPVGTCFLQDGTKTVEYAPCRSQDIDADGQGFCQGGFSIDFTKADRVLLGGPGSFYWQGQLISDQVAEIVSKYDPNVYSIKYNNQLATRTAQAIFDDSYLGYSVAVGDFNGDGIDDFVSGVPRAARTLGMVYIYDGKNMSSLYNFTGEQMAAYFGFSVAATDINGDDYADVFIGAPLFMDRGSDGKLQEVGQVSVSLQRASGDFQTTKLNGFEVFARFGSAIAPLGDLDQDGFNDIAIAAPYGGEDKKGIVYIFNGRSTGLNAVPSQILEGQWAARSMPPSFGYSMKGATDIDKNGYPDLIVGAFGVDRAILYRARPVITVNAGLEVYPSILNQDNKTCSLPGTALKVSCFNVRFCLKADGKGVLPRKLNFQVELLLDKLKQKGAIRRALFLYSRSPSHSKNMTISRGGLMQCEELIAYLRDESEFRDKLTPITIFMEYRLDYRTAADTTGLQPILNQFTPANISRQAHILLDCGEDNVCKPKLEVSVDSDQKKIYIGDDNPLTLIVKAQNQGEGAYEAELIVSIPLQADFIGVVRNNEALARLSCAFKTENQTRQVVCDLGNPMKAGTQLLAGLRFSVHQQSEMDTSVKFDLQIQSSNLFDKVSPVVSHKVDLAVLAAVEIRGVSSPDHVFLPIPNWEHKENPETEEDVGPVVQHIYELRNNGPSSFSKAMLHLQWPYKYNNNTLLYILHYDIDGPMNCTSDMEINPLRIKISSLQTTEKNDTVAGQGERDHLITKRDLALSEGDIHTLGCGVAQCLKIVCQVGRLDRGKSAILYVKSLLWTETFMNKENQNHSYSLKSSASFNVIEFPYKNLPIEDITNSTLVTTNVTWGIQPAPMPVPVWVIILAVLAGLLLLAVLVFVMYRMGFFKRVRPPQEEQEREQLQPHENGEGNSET
T3 sequence (P05106 27-788, chain 2 of 2): as the sequence (P05106 27-788, chain 2 of 2) above

[10] = biological target: T4, urea-denaturated human plasma vitronectin (human, UniProt P04004 20-478); assay: solid phase binding assay (discussion)
T4 construct: also called VN
T4 sequence (P04004 20-478 limits assumed): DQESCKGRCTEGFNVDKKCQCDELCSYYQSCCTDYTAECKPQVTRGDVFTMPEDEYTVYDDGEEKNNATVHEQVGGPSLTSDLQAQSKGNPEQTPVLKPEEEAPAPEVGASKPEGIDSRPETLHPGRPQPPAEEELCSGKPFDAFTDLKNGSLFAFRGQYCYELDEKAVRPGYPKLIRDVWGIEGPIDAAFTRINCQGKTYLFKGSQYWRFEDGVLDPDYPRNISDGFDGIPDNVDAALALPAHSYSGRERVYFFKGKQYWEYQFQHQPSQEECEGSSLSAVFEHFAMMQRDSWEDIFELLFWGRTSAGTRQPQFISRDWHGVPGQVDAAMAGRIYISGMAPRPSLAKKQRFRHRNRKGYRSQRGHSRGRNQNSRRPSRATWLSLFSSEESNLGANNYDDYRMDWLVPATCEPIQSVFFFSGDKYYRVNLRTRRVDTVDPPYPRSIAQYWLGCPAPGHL

[11] = biological target: the molecule itself; assay: solid phase assay, streptavidin-peroxidase
[12] = biological target: T4, urea-denaturated human plasma …; assay: solid phase assay, streptavidin-peroxidase
[13] = biological target: B5; assay: solid phase assay, streptavidin-peroxidase

B1: CRV phage (CRVYGPYLLC displayed on phage) (peptide)
peptide: CRVYGPYLLC
modifications: cysteine pairing not given here; also: displayed on phage as coat protein fusion
notes: also called phage carrying CRV
[1]
  binding result: no binding (tested: 20 ng/well; 10^8 transducing units/well)
[2]
  binding result: no binding (tested: 20 ng/well; 10^8 transducing units/well)
[3]
  binding result: no binding (tested: 20 ng/well; 10^8 transducing units/well)
[4]
  binding result: no binding

## CGFGRWQPPC (cysteine pairing not given here; also: displayed on phage, selected by biopanning) [phage peptide CGFGRWQPPC]
[5]
  binding result: binds

B2: fibronectin-derived peptide TTPNSLLVSWQPPRARIT (peptide)
peptide: TTPNSLLVSWQPPRARIT
notes: Synthesized on a cellulose membrane (pepspot); also called PPC-like fibronectin peptide
[6]
  binding result: binds

B3: PPC peptide-bearing phage (CGYGRFSPPC displayed on phage) (peptide)
peptide: CGYGRFSPPC
modifications: cysteine pairing not given here; also: displayed on phage
notes: also called PPC phage; phage carrying PPC
[7]
  binding result: binds

## B4
[8]
  binding result: no binding
[9]
  binding result: no binding

## CGWGRYSPPC (cysteine pairing not given here; also: displayed on phage, selected by biopanning) [phage peptide CGWGRYSPPC]
[5]
  binding result: binds

## B5
[10]
  binding result: binds

B6: integrin β5 I-EGF2+3 fragment (Glu476-Asn563) with N-terminal His6-tag (receptor, UniProt P18084 499-586, looked up)
chain: ECQDGENQSVYQNLCREAEGKPLCSGRGDCSCNQCSCFESEFGKIYGPFCECDNFSCARNKGVLCSGHGECHCGECKCHAGYIGDNCN
modifications: biotinylated where used as the labelled ligand
notes: range 476-563; also called I-EGF2+3 fragment of β5 integrin; biotinylated β5 I-EGF2+3; not shown: N-terminal His6-tag from the pHAT2 vector
[11]
  binding result: no binding (tested: biotinylated fragment 2.5 µg/ml)
[12]
  binding result: no binding (tested: biotinylated fragment 2.5 µg/ml)
[13]
  binding result: no binding (tested: biotinylated fragment 2.5 µg/ml)
